These results are taken from article PMC8421406, “C9orf72-derived arginine-rich poly-dipeptides impede phase modifiers” (Nature Communications, 2021).

Data set [1] has as its system Kapβ2. Briefly: Solution NMR (1H-13C methyl) of labelled Kapβ2. The data set is classed as binding. The settings on record: comparison of perturbations by PR20, M9M and FUS-ΔNLS. The method, then: The Kapβ2 expression plasmid was transformed into BL21(DE3) cells. The protein samples with ^1H,^13C-labeled methyl groups in deuterium background were prepared as described in a previous study. The cells were grown in medium with ^15NH4Cl (2 gL^−1, CIL) and ^2H7-glucose (2 g L^−1, CIL) in 99.9% ^2H2O (Isotec). The precursors for methyl groups of Ile, Val, and Leu, α-ketobutyric acid (50 mg L^−1) and α-ketoisovaleric acid (80 mg L^−1), and [^13CH3] methionine (50 mg L^−1) were added to the culture 1 h before the addition of IPTG. Protein expression was induced by the addition of 0.5 mM IPTG at OD600 ~ 0.6, followed by ~16 h of incubation at 25 °C. […] Protein concentration was determined spectrophotometrically at 280 nm using a corresponding extinction coefficient.
The isotopically labeled Kapβ2 was prepared in the NMR buffer containing 20 mM ^2H-Tris pH 7.4, 150 mM NaCl, 2 mM MgCl2, 2 mM DTT, and 2% glycerol, concentrated to 20 μM. […] Perturbation of the side chain methyl resonances were each monitored using ^1H-^13C heteronuclear multiple quantum coherence. […] The perturbations of the resonances were evaluated based on chemical shift change or intensity change. […]
In order to investigate the interaction between Kapβ2 and PR poly-dipeptide by NMR, the NMR spectra of the isotopically labeled Kapβ2 in the absence and presence of the synthetic peptide of PR20:HA were measured. […]

In data set [2] the test system is FUS droplets (MBP:FUS/MBP:FUS:EGFP) / Kapβ2. In words: Fluorescence microscopy of FUS droplets. Format: biochemical. The settings on record: 16 μM Kapβ2, 16 μM Kapβ2–M9M complex, 50 μM PR20, repeated three times.
Data set [3] has as its system MBP:FUS (full-length FUS droplets) / Kapβ2. In words: Turbidity assay of FUS droplet formation (OD 395 nm). Format: biochemical. The settings on record: 8 μM Kapβ2, 8 μM MBP:FUS.
Data set [4] has as its system GFP:FUS-LC:NLS / mCh:FUS-LC hydrogel. In words: Hydrogel binding assay, GFP:FUS-LC:NLS on mCh:FUS-LC hydrogel. Format: biochemical. The settings on record: Kapβ2 0.1-1.0 µM; PR20 with 1.0 µM Kapβ2. The method, then:
The experiment was independently repeated three times with similar results. Here, 10 μm scale bars are shown in the image. e Graphical description of hydrogel binding assay. Hydrogels of mCh:LC-domain accumulate GFP:LC-domain as it co-polymerizes. f Hydrogel binding assay for FUS-LC in the absence and presence of Kapβ2. mCh:FUS-LC (lower images) were incubated with 1.0 µM of GFP (left panel) or 1.0 µM of GFP:FUS-LC:NLS (right panel) in the presence of different concentrations of Kapβ2 (left to right: 0.1, 0.3, and 1.0 µM). g Quantitative analysis of Fig. 1f. Relative intensity of GFP signals is shown as the mean of three independent experiments ± SD, analyzed by one-way ANOVA followed by Dunnett’s multiple comparison test (**P < 0.01, ***P < 0.001). h Hydrogel binding assay for FUS-LC in the absence and presence of Kapβ2 and/or PR20. Hydrogel droplets of mCh:FUS-LC (lower images) were incubated with 1.0 µM of GFP (left panel) or GFP:FUS-LC:NLS (right panel). GFP:FUS-LC:NLS containing Kapβ2 (1.0 µM) was challenged for homotypic polymer extension in the absence or presence of different concentration of PR20. i Quantitative analysis of Fig. 1h. Relative intensity of GFP signals is shown as the mean of three independent experiments ± SD, analyzed by one-way ANOVA followed by Dunnett’s multiple comparison test (**P < 0.01). Source data are provided as a Source Data file. […]

Data set [5] has as its system GFP:FUS-LC / mCh:FUS-LC hydrogel. In words: Hydrogel binding assay, GFP:FUS-LC on mCh:FUS-LC hydrogel. Format: biochemical. The settings on record: Kapβ2 0.1-10.0 µM; 1.0 µM GFP:FUS-LC. The source says: Expression plasmids for recombinant proteins (GFP/mCherry fusion LC-domain of FUS (residue 2–214, GFP/mCh:FUS-LC) and GFP/mCherry fusion LC-domain of hnRNPA2 (residue 181–341, GFP/mCh:hnRNPA2-LC)) were obtained from the Steven L. McKnight Laboratory. Expression plasmid for GFP:FUS-LC fusion NLS (residue 501–526, GFP:FUS-LC:NLS), mCh fusion LC-domain of TDP43 (residue 262–414, mCh:TDP43-LC), and GFP-tagged cNLS (residue 78–99) fusion TDP43-LC (GFP:cNLS:TDP43-LC) were constructed using In-Fusion HD Cloning Kit (Takara Bio, Inc.). GFP/mCh:FUS-LC, GFP:FUS-LC:NLS, and GFP/mCh:hnRNPA2-LC were expressed in E. coli BL21(DE3) cells with 0.5 mM IPTG at 20 °C overnight and purified by Ni-NTA Agarose (FUJIFILM Wako Pure Chemical Corporation), as described in a previous study. GFP:cNLS:TDP43-LC were expressed with 1.0 mM IPTG at 37 °C for 3 h and mCh:TDP43-LC were expressed with 0.5 mM IPTG at 16 °C overnight. GFP:cNLS:TDP43-LC and mCh:TDP43-LC were purified by Ni-NTA as described in a previous study[48] with some modifications. […] Relative intensity of GFP signals across the hydrogel droplets were measured in triplicate by using the profile plot mode in ImageJ. […]

B1: FUS-ΔNLS: FUS (1-500, FUS-ΔNLS) (protein)
chain: MASNDYTQQATQSYGAYPTQPGQGYSQQSSQPYGQQSYSGYSQSTDTSGYGQSSYSSYGQSQNTGYGTQSTPQGYGSTGGYGSSQSSQSSYGQQSSYPGYGQQPAPSSTSGSYGSSSQSSSYGQPQSGSYSQQPSYGGQQQSYGQQQSYNPPQGYGQQNQYNSSSGGGGGGGGGGNYGQDQSSMSSGGGSGGGYGNQDQSGGGGSGGYGQQDRGGRGRGGSGGGGGGGGGGYNRSSGGYEPRGRGGGRGGRGGMGGSDRGGFNKFGGPRDQGSRHDSEQDNSDNNTIFVQGLGENVTIESVADYFKQIGIIKTNKKTGQPMINLYTDRETGKLKGEATVSFDDPPSAKAAIDWFDGKEFSGNPIKVSFATRRADFNRGGGNGRGGRGRGGPMGRGGYGGGGSGGGGRGGFPSGGGGGGGQQRAGDWKCPNPTCENMNFSWRNECNQCKAPKPDGPGGGPGGSHMGGNYGDDRRGGRGGYDRGGYRGRGGDRGGFRGGRGG
modifications: left off: MBP, end not stated, state not stated
For the molecule B1, the “Binding site on Kapβ2 by NMR” value in data set [1] is “the binding site for FUS-ΔNLS does not overlap with that for PR20”.

B2: Kapβ2: nuclear import receptor karyopherin-β2, recombinant (protein)
chain: MVWDRQTKMEYEWKPDEQGLQQILQLLKESQSPDTTIQRTVQQKLEQLNQYPDFNNYLIFVLTKLKSEDEPTRSLSGLILKNNVKAHFQNFPNGVTDFIKSECLNNIGDSSPLIRATVGILITTIASKGELQNWPDLLPKLCSLLDSEDYNTCEGAFGALQKICEDSAEILDSDVLDRPLNIMIPKFLQFFKHSSPKIRSHAVACVNQFIISRTQALMLHIDSFIENLFALAGDEEPEVRKNVCRALVMLLEVRMDRLLPHMHNIVEYMLQRTQDQDENVALEACEFWLTLAEQPICKDVLVRHLPKLIPVLVNGMKYSDIDIILLKGDVEEDETIPDSEQDIRPRFHRSRTVAQQHDEDGIEEEDDDDDEIDDDDTISDWNLRKCSAAALDVLANVYRDELLPHILPLLKELLFHHEWVVKESGILVLGAIAEGCMQGMIPYLPELIPHLIQCLSDKKALVRSITCWTLSRYAHWVVSQPPDTYLKPLMTELLKRILDSNKRVQEAACSAFATLEEEACTELVPYLAYILDTLVFAFSKYQHKNLLILYDAIGTLADSVGHHLNKPEYIQMLMPPLIQKWNMLKDEDKDLFPLLECLSSVATALQSGFLPYCEPVYQRCVNLVQKTLAQAMLNNAQPDQYEAPDKDFMIVALDLLSGLAEGLGGNIEQLVARSNILTLMYQCMQDKMPEVRQSSFALLGDLTKACFQHVKPCIADFMPILGTNLNPEFISVCNNATWAIGEISIQMGIEMQPYIPMVLHQLVEIINRPNTPKTLLENTAITIGRLGYVCPQEVAPMLQQFIRPWCTSLRNIRDNEEKDSAFRGICTMISVNPSGVIQDFIFFCDAVASWINPKDDLRDMFCKILHGFKNQVGDENWRRFSDQFPLPLKERLAAFYGV
modifications: left off: GST, end not stated, cleaved
notes: nuclear import receptor karyopherin-β2, recombinant
Take B2: in data set [2], the “Effect on FUS droplets (microscopy)” value is “FUS droplets are dissolved by Kapβ2”. The “Effect of Kapβ2 on FUS droplet formation (turbidity)” value in data set [3] is reported as “kept FUS from changing into liquid-like droplets”. Moreover, the “Effect on hydrogel binding of GFP:FUS-LC:NLS” value in data set [4] was “blocked by Kapβ2”. In addition, the “Effect on hydrogel binding of GFP:FUS-LC” value in data set [5] is recorded as “not blocked”.
